The results in this text go back to patent US20240287172A1 (SCIRHOM, published 2024).

One test concerns the target T1, hiR2-FL-V434E-T7 (human, UniProt Q6PJF5 1-856).
T1 sequence: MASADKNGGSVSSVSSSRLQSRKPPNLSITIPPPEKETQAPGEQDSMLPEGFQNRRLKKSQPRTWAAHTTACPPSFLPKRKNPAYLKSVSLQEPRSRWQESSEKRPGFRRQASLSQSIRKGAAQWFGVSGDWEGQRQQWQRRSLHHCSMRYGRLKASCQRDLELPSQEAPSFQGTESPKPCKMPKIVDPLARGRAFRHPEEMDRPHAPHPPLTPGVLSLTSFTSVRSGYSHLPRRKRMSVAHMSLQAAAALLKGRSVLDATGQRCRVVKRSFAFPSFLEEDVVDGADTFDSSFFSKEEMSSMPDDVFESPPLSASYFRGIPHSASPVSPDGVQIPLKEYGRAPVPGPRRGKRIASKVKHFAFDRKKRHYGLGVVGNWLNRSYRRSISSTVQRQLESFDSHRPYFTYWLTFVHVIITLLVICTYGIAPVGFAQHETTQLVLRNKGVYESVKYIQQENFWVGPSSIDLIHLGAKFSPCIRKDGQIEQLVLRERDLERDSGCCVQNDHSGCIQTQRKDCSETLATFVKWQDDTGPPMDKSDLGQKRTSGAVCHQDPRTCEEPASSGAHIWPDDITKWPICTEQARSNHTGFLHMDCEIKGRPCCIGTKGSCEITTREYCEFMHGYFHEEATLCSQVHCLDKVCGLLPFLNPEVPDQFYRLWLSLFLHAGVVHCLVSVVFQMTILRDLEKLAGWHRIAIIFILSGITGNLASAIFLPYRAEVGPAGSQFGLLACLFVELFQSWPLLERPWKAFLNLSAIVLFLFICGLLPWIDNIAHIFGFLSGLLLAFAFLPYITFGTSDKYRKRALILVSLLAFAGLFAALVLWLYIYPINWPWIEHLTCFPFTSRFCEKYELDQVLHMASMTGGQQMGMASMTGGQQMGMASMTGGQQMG
Description: FACS, MEF-DKO cells, 3 µg/ml. The text has this:
(§1) In brief, immortalized MEF-DKO-hiR2-FL-A431S-T7, MEF-DKO-hiR2-FL-V434E-T7, MEF-DKO-hiR2-FL-T436V-T7, MEF-DKO-hiR2-FL-Q437D-T7, MEF-DKO-hiR2-FL-L438S-T7, MEF-DKO-hiR2-FL-S448N-T7, MEF-DKO-hiR2-FL-I452V-T7, MEF-DKO-hiR2-FL-I464E-T7, MEF-DKO-hiR2-FL-D465A-T7, MEF-DKO-hiR2-FL-I477M-T7, MEF-DKO-hiR2-FL-K479Q-T7, MEF-DKO-hiR2-FL-G481P-T7, MEF-DKO-hiR2-FL-I483V-T7, MEF-DKO-hiR2-FL-E484H-T7, MEF-DKO-hiR2-FL-Q485S-T7, MEF-DKO-hiR2-FL-L486F-T7, MEF-DKO-hiR2-FL-V487I-T7, MEF-DKO-hiR2-FL-R489S-T7, MEF-DKO-hiR2-FL-E490A-T7, MEF-DKO-hiR2-FL-D492E-T7, MEF-DKO-hiR2-FL-L493R-T7, MEF-DKO-hiR2-FL-R495K-T7 and MEF-DKO-hiR2-FL-D496H-T7 cells were harvested with 10 mM EDTA in PBS, washed and resuspended in FACS buffer (PBS, 3% FBS, 0.05% sodium azide), and seeded in Nunc U-bottom 96-well plates (Thermo Fisher Scientific, USA) at approximately 1×10⁵ cells per well. To pellet cells and remove supernatants, the plates were centrifuged at 1,500 rpm and 4° C. for 3 minutes. For primary staining, cells were resuspended in 100 μl per well of either FACS buffer alone (controls) or the purified antibodies 3, 5, 16, 22, 34, 42, 43, 44, 48, and 50 of the invention at 3 μg/ml in FACS buffer and incubated on ice for 1 hour. Afterwards, plates were centrifuged at 1,500 rpm and 4° C. for 3 minutes and washed twice with 200 μl per well of FACS buffer. For secondary staining, cells were spun down and resuspended in 100 μl per well of PE-conjugated goat anti-mouse IgG F(ab′)2 detection fragment (Dianova, Germany) diluted 1:100 in FACS buffer. Protected from light, the cell suspensions were incubated on ice for 1 hour. Plates were then centrifuged at 1,500 rpm and 4° C. for 3 minutes and washed three times with 200 μl per well of FACS buffer. Finally, cells were resuspended in 150 μl per well of FACS buffer and analyzed using a BD Accuri™ C6 Plus flow cytometer (Becton Dickinson, Germany).

In a further test the target is T2, hiR2-FL-Q437D-T7 (human, UniProt Q6PJF5 1-856).
T2 sequence: T1 sequence with E434V, Q437D
Kind of test: FACS, MEF-DKO cells, 3 µg/ml.
Description: as §1
(Flow cytometry measures light scatter and fluorescence of single cells or particles in a stream.)

Positions count from the first letter of the chain named.

B1: antibody 48 (antibody, V domains shown)
VH: QVQLQQSGTELVRPGTSVKVSCKASGYAFTNYLIEWVKQRPGQGLEWIGVINPGSGFTKYNEKFKGKATLTADKSSSTVYMHLSSLTSEDSAVYFCARGLYRAMDYWGQGTSVTVSS
VL: DIQMTQSPASQSASLGESVTITCLASQTIATWLAWYQQKPGKSPQLLIYGATTLADGVPSRFSGGGSGTKFSFKISSLQAEDFVSYYCQQLYSTPYTFGGGTKLEIK
notes: mouse IgG, kappa light chain; also called clone #48; purified antibody 48
As for B1, the “loss of binding vs wild type” value with hiR2-FL-V434E-T7 and in the test with hiR2-FL-Q437D-T7 was at least 30% in each case.

B2: antibody 50 (antibody, V domains shown)
VH: B1 VH with T9A, T16A, T30S, V79A, H82Q
VL: B1 VL with A30G, G50A, T52A, T53S, S85N, L91I
notes: mouse IgG, kappa light chain; also called clone #50; purified antibody 50
Take B2: the “loss of binding vs wild type” value with hiR2-FL-V434E-T7 and with hiR2-FL-Q437D-T7 was at least 30% in each case.
